Measured values from US20160084841A1, “Method for Predicting Clinical Effect of Immunotherapy” (INTERNATIONAL INSTITUTE OF CANCER IMMUNOLOGY, INC., priority 2013, published 2016).

Key:
[1] = test system: anti-WT1126 peptide IgG antibody; assay: ELISA using variant WT1 antigen peptide as immobilized antigen to assay anti-WT1126 peptide IgG antibody; assay type: binding, human; conditions: serum of pancreatic cancer patient given WT1126 peptide; increase in titer detected; FIG. 20
Protocol: WT126-134 (SEQ ID NO: 65), WK126-134 (SEQ ID NO: 66), WT128-134 (SEQ ID NO: 67), WT126-132 (SEQ ID NO: 68), WT129-134 (SEQ ID NO: 69), WT126-131 (SEQ ID NO: 70), and WT126-130 (SEQ ID NO: 71) were synthesized by GL Biochem (Shanghai) Corporation Ltd. WT1-frg1 (SEQ ID NO: 64) was prepared in the same way as in the aforementioned WT1-frg3 (SEQ ID NO: 57).
The measurement of the antibody titer using WT1-frg1 (SEQ ID NO: 64) was performed in the same way as in the aforementioned WT1-frg3 (SEQ ID NO: 57). The measurement of the antibody titer using WT126-134 (SEQ ID NO: 65), WK126-134 (SEQ ID NO: 66), WT128-134 (SEQ ID NO: 67), WT126-132 (SEQ ID NO: 68), WT129-134 (SEQ ID NO: 69), WT126-131 (SEQ ID NO: 70), or WT126-130 (SEQ ID NO: 71) was performed in the same way as in the aforementioned WT332-347 (SEQ ID NO: 58), etc.

[2] = test system: anti-WT1235 peptide IgG antibody; assay: ELISA using variant WT1 antigen peptide as immobilized antigen to assay anti-WT1235 peptide IgG antibody; assay type: binding, human; conditions: serum of thymic carcinoma patient given WT1235 peptide; increase in titer detected; FIG. 19
Protocol: WK235-243 (SEQ ID NO: 62) and WT237-243 (SEQ ID NO: 63) were synthesized by GL Biochem (Shanghai) Corporation Ltd. WT1-frg2 (SEQ ID NO: 61) was prepared in the same way as in the aforementioned WT1-frg3 (SEQ ID NO: 57).
The measurement of the antibody titer using WT1-frg2 (SEQ ID NO: 61) was performed in the same way as in the aforementioned WT1-frg3 (SEQ ID NO: 57). The measurement of the antibody titer using WK235-243 (SEQ ID NO: 62) or WT237-243 (SEQ ID NO: 63) was performed in the same way as in the aforementioned WT332-347 (SEQ ID NO: 58), etc.

B1: WT1-frg1: long-chain peptide (182 aa, SEQ ID NO: 64) containing the whole length of the administered WT1126 peptide (protein)
chain: MGSDVRDLNALLPAVPSLGGGGGCALPVSGAAQWAPVLDFAPPGASAYGSLGGPAPPPAPPPPPPPPPHSFIKQEPSWGGAEPHEEQCLSAFTVHFSGQFTGTAGACRYGPFGPPPPSQASSGQARMFPNAPYLPSCLESQPAIRNQGYSTVTFDGTPSYGHTPSHHAAQFPNHSFKHEDPM
ability as ELISA antigen to measure anti-WT1126 IgG antibody level in patient's serum [1]: could measure an anti-WT1126 IgG antibody level in patient's serum

B2: WT1-frg2: long chain peptide (145 aa, SEQ ID NO: 61) containing the whole length (Y2M) of the administered WT1235 peptide (protein)
chain: DPMGQQGSLGEQQYSVPPPVYGCHTPTDSCTGSQALLLRTPYSSDNLYQMTSQLECMTWNQMNLGATLKGVAAGSSSSVKWTEGQSNHSTGYESDNHTTPILCGAQYRIHTHGVFRGIQDVRRVPGVAPTLVRSASETSEKRPFM
ability as ELISA antigen to measure anti-WT1235 IgG antibody level in patient's serum [2]: could measure an anti-WT1235 IgG antibody level in patient's serum
